From patent publication US20120269815A1, “NEUROTROPHINS AND USES THEREOF” (Regents of the University of Minnesota, priority 2008, published 2012)

What was measured:
[1] = system: TUF1 expression in adrenal glomerulosa cell dispersion; test: Angiotensin II stimulation of adrenal glomerulosa cell dispersion (qPCR); assay type: cell-based, rat; conditions: overnight incubation, 5-500 ng/mL
Description: Adrenal glands were dissected from adult Sprague-Dawley rats (280 g-300 g) and kept in cold PBS. Following fat removal, adrenal capsules were detached and placed into a few drops of dispersion media (DMEM, 1.0 g/L glucose, 0.32% collagenase (type I, GIBCO, Life Technologies Corp., Carlsbad, Calif.), 4% BSA (Sigma-Aldrich Co., St. Louis, Mo.), 0.1% DNAse (Sigma-Aldrich Co., St. Louis, Mo.). Adrenal capsules were then minced with surgical scissors, transferred to dispersion media and incubated for 90 minutes in a 37° C. and 10% CO2 cell culture incubator with trituration at 15 minute intervals. Dispersed cells were filtered through a 100 μm wire mesh into wash media (DMEM, 0.4% BSA, 0.28% HEPES) and centrifuged at 200×g for 5 minutes. Following supernatant removal, cells were rinsed in wash media and resuspended in incubation media (wash media+7.65 mM CaCl2). Dissociated cells were seeded at 75,000 cells/well in a 24-well plate and incubated at 37° C. and 10% CO2 prior to stimulation. […]
Following overnight incubation, total RNA was isolated from capsular/glomerulosa cells using an RNA-isolation kit (Zymo Research Corp., Orange, Calif.) and concentrations were measured by absorbance at 260 nm ([…]) using a NanoDrop ND-1000 (NanoDrop Technologies, Inc., Wilmington, Del.). […]

p75^NTR = target: T1, p75^NTR (Homo sapiens, UniProt P08138); test: Fluorescence-labeled TUF1 peptide binding to COS7 cells expressing p75NTR; conditions: labeled peptide 5 nM, 90 min, COS7 cells transfected with pCMV-SPORT6-p75
T1 construct: host or cells: COS7
T1 sequence (P08138 29-427): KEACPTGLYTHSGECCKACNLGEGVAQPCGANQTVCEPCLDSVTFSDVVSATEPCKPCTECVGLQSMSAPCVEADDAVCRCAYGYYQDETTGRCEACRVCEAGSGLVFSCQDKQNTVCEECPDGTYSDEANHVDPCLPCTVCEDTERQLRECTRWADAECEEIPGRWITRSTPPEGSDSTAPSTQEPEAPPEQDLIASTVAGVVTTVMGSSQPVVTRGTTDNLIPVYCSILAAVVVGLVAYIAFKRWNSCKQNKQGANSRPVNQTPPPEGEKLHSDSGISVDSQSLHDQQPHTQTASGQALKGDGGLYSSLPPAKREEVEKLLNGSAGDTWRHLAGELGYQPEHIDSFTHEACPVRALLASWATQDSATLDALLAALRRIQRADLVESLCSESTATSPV
Description: COS7 cells were seeded at 10,000 cells/well onto a 18 mm coverslip in a 12-well plate. Cells were allowed to settle overnight in a cell culture incubator (NuAire NU-8600, NuAire, Inc., Plymouth, Minn.) set at 37° C. and 5% CO2. Cells were transfected with pCMV-eGFP (Clontech Laboratories, Inc., Mountain View, Calif.) or pCMV-SPORT6-p75 (ATCC) using Fugene HD (Roche Diagnostics Corp., Indianapolis, Ind.) and were incubated overnight. The binding assays were carried out according to Horton et al. with modifications. Synthetic TUF1 peptides (TUF1[43-54] (SEQ ID NO:1) and TUF1[24-40] (SEQ ID NO:3) were generated (via Sigma Genosys, Sigma-Aldrich Co. St. Louis, Mo.) and were conjugated per manufacturer's recommendation with DyLight 549 NHS Ester (Thermo Fisher Scientific, Waltham, Mass.), which have similar spectra to Cy3 dye. Unconjugated dye was removed with a dye removal column (Thermo Fisher Scientific, Waltham, Mass.). Labeled peptides were diluted to 5 nM in 0.15 M Sucrose/PBS and added (1.0 ml/well) to transfected COS7 cells. The binding reaction was incubated in the dark at room temperature for 90 minutes. Cells were rinsed thoroughly with PBS+0.05% Tween-20 to remove unbound peptide. Cells were then fixed with 4% Paraformaldehyde (5 minutes).
Following fixation, cells were permeabilized in PBS+0.1% Tween-20 for 10 minutes, rinsed thoroughly with PBS, and blocked in BSA (10 mg/ml) for 10 minutes. Cells were incubated with rabbit anti-p75^NTR antibody (1:10,000 dilution) for 30 minutes. Excess antibody was removed with PBS washes. Cells were then incubated with Alexa-488 goat anti-rabbit antibody (1:500 dilution, Invitrogen). Cells were again rinsed thoroughly with PBS and mounted in Vectashield mounting media plus DAPI (Vector Laboratories, Inc., Burlingame, Calif.).
COS7 cells were seeded at 10,000 cells/well onto an 18 mm coverslip in a 12-well plate. Cells were allowed to settle overnight in a cell culture incubator (NuAire NU-8600, NuAire, Inc., Plymouth, Minn.) set at 37° C. and 5% CO2. Cells were transfected with pCMV-eGFP (Clontech Laboratories, Inc., Burlingame, Calif.) or pCMV-SPORT6-p75 (ATCC) using Fugene HD (Roche Diagnostics Corp., Indianapolis, Ind.) and were incubated overnight. The binding assays were carried out according to Horton et al. with modifications. Synthetic TUF1 peptides (TUF1[43-54] (SEQ ID NO:1) and TUF1[24-40] (SEQ ID NO:3)) were generated (via Sigma Genosys, Sigma-Aldrich, St. Louis, Mo.) and were conjugated per manufacturer's recommendation with DyLight 549 NHS Ester (Thermo Fisher Scientific Inc., Waltham, Mass.), which have similar spectra to Cy3 dye. Unconjugated dye was removed with a dye removal column (Thermo Fisher Scientific Inc., Waltham, Mass.). Labeled peptides were diluted to 5 nM in 0.15M Sucrose/PBS and added (1.0 ml/well) to transfected COS7 cells. The binding reaction was incubated in the dark at room temperature for 90 min. Cells were rinsed thoroughly with PBS+0.05% Tween-20 to remove unbound peptide. Cells were then fixed with 4% Paraformaldehyde (5 minutes).
Following fixation, cells were permeabilized in PBS+0.1% Tween-20 for 10 minutes, rinsed thoroughly with PBS, and blocked in BSA (10 mg/ml) for 10 minutes. Cells were incubated with rabbit anti-p75^NTR antibody (1:10,000 dilution) for 30 minutes. Excess antibody was removed with PBS washes. Cells were then incubated with Alexa-488-goat anti-rabbit antibody (1:500 dilution, Invitrogen Corp., Carlsbad, Calif.). […]

Row | Substance | TUF1 expression [1] | binding to p75^NTR (p75^NTR) | binding to p75^NTR (p75^NTR; listed as TUF1^24-40)
1 | Angiotensin II (DRVYIHPF; Angiotensin-2; UniProt P01019 25-32, looked up) [angiotensin II (Sigma-Aldrich) used to stimulate adrenal glomerulosa cells] | activates TUF1 expression | – | –
2 | TUF1[24-40]: synthetic TUF1 peptide, SEQ ID NO:3, without similarity to neurotrophic factors (NGF and BDNF) (GTIKLTPRLSKDAYSEM; Artifical sequence; TUF1 polypeptide) | – | did not bind cells expressing p75^NTR | did not bind the p75^NTR
